Source: PMC9284427 (The Journal of Cell Biology, 2022)
Like-named read-outs stand apart in the source and are kept apart here.

B4: MBP-tagged JIP3[1-108] (domain or fragment, human, UniProt Q9UPT6-1 1-108, looked up)
chain: MMEIQMDEGGGVVVYQDDYCSGSVMSERVSGLAGSIYREFERLIHCYDEEVVKELMPLVVNVLENLDSVLSENQEHEVELELLREDNEQLLTQYEREKALRRQAEEKF
B5: MBP::UNC-16[1-120] (domain or fragment, C. elegans, UniProt P34609-1 1-120, looked up)
chain: MACNLSPVNEMADSITSSTPSEIVYGGPGSPDEHRTMSDKVQTMASAIYRELETMIKVHGEDGVKTLMPLVVNVLEALDLAYLERDEQTAELEMLKEDNEQLQTQYEREKALRKQTEQKY
B8: RILP[1-106] (domain or fragment, human, UniProt Q96NA2-1 1-106, looked up)
chain: MEPRRAAPGVPGWGSREAAGSASAAELVYHLAGALGTELQDLARRFGPEAAAGLVPLVVRALELLEQAAVGPAPDSLQVSAQPAEQELRRLREENERLRRELRAGP
B10: GST::DLIC1[388-523] (domain or fragment, human, UniProt Q9Y6G9 388-523, looked up)
chain: PTAAGRPVDASPRVPGGSPRTPNRSVSSNVASVSPIPAGSKKIDPNMKAGATSEGVLANFFNSLLSKKTGSPGGPGVSGGSPAGGAGGGSSGLPPSTKKSGQKPVLDVHAELDRITRKPVTVSPTTPTSPTEGEAS

Key:
[1] = target: T1, GST::KIF5C[807-956] (mouse, UniProt P28738 807-956); test: pull-down
[2] = target: DLIC1[388-523] (human, UniProt Q9Y6G9 388-523); test: ITC
[3] = target: the molecule itself; test: AUC
[4] = target: T1, GST::KIF5C[807-956]; test: pull-down; remark: listed apart in the source
[5] = target: B4; test: pull-down
[6] = target: UNC-116[675-815] (C. elegans, UniProt P34540 675-815); test: pull-down
[7] = target: B5; test: pull-down
[8] = target: B10; test: pull-down
[9] = target: T2, mouse JIP3[186-505] (mouse, UniProt Q9ESN9-5 186-505); test: pull-down
T2 sequence (looked up): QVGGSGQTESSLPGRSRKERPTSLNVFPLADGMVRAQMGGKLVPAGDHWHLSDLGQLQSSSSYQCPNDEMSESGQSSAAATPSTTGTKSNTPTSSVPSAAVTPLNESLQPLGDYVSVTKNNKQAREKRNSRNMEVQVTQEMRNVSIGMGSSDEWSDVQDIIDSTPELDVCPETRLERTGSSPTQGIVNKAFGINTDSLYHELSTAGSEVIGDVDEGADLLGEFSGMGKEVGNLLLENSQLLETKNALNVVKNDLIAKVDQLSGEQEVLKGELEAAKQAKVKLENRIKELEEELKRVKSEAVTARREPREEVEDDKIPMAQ

[10] = target: B8; test: SEC
[11] = target: T3, full-length RILP (human, UniProt Q96NA2-1 1-401); test: pull-down
T3 sequence (looked up): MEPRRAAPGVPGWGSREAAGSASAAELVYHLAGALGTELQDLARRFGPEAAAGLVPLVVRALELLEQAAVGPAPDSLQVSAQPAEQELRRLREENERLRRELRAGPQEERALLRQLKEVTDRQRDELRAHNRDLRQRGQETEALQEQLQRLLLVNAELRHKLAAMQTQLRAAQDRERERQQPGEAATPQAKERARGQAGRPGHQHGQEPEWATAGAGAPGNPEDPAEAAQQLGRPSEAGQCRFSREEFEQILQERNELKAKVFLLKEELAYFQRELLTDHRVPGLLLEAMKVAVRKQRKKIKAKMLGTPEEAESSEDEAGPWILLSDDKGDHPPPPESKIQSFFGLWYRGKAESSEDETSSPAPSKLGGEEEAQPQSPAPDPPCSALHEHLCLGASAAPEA

T1 sequence (P28738 807-956): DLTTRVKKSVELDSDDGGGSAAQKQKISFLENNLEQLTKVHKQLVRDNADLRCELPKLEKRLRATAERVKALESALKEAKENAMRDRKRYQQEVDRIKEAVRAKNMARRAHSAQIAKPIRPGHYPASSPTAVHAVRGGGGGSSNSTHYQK
Sequence of UNC-116[675-815] (P34540 675-815): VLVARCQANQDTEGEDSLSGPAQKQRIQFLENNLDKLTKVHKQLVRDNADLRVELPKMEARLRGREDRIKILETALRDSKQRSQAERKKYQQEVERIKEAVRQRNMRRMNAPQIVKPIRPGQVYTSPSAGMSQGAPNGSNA

B1: JIP3[1-108] (domain or fragment, human, UniProt Q9UPT6-1 1-108, looked up)
chain: MMEIQMDEGGGVVVYQDDYCSGSVMSERVSGLAGSIYREFERLIHCYDEEVVKELMPLVVNVLENLDSVLSENQEHEVELELLREDNEQLLTQYEREKALRRQAEEKF
binding result [1]: binds
Kd [2]: ~1 µM
stoichiometry N [2]: 2 DLIC1-C molecules per RH1 dimer
stoichiometry N [3]: 2

B2: JIP3[1-108] V60Q (domain or fragment, human, UniProt Q9UPT6-1 1-108, looked up)
chain: MMEIQMDEGGGVVVYQDDYCSGSVMSERVSGLAGSIYREFERLIHCYDEEVVKELMPLVQNVLENLDSVLSENQEHEVELELLREDNEQLLTQYEREKALRRQAEEKF
binding result [1]: binds
stoichiometry N [3]: 2

B3: JIP4[1-103] (domain or fragment, human, UniProt O60271-1 1-103, looked up)
chain: MELEDGVVYQEEPGGSGAVMSERVSGLAGSIYREFERLIGRYDEEVVKELMPLVVAVLENLDSVFAQDQEHQVELELLRDDNEQLITQYEREKALRKHAEEKF
Kd [2]: ~4 µM
stoichiometry N [2]: 2 DLIC1-C molecules per RH1 dimer
stoichiometry N [3]: 2

B4
binding result [4]: binds

NMKAGATSEGVLANFFNSLLSKKTGS (peptide, UniProt Q9Y6G9 433-458, looked up) [DLIC-C helix 1 peptide (residues 433-458)]
binding result [5]: binds

B5
binding result [6]: binds

B6: GST::DLI-1[369-442] (domain or fragment, C. elegans, UniProt G5ED34 369-442, looked up)
chain: TTAAPKPRTMQEEPTDKDSPLANFFSNLLNKDKPSKVSSPSTVSQPMDAAATQAQLDRLLKSAQSPKPQPRDSD
binding result [7]: binds

B7: MBP::UNC-16[1-120] V72Q (domain or fragment, C. elegans, UniProt P34609-1 1-120, looked up)
chain: MACNLSPVNEMADSITSSTPSEIVYGGPGSPDEHRTMSDKVQTMASAIYRELETMIKVHGEDGVKTLMPLVQNVLEALDLAYLERDEQTAELEMLKEDNEQLQTQYEREKALRKQTEQKY
binding result [6]: binds

B8
binding result [8]: binds

B9: GST-tagged KLC1[185-501] (domain or fragment, human, UniProt Q07866-1 185-501, looked up)
chain: DDPGQGIQQQHSSAAAAAQQGGYEIPARLRTLHNLVIQYASQGRYEVAVPLCKQALEDLEKTSGHDHPDVATMLNILALVYRDQNKYKDAANLLNDALAIREKTLGKDHPAVAATLNNLAVLYGKRGKYKEAEPLCKRALEIREKVLGKDHPDVAKQLNNLALLCQNQGKYEEVEYYYQRALEIYQTKLGPDDPNVAKTKNNLASCYLKQGKFKQAETLYKEILTRAHEREFGSVDDENKPIWMHAEEREECKGKQKDGTSFGEYGGWYKACKVDSPTVTTTLKNLGALYRRQGKFEAAETLEEAAMRSRKQGLDNV
binding result [9]: binds

SEGVLANFFNSLLSKK (domain or fragment, human) [DLIC1[440-455]]
binding result [10]: binds

B10
binding result [11]: binds
